Laboratory results: patent US10202627B2, “Method for producing trehangelin” (THE KITASATO INSTITUTE, priority 2016, dated 2019)

Tests used:
[1] = system: animal cells (particularly, human cells); settings: cited from earlier work
[2] = enoyl-CoA hydratase activity of recombinant OrfA, LC/MS; type: biochemical; settings: 15.8 μg orfA with orfB and orfD, 500 μM NADPH, pH 7.5, 27° C., 16 hours
Protocol: (§1) A substrate of the target enzyme is added to the reaction solution. Specifically, in a 3-ketoacyl-CoA synthase activity assay, acetyl-CoA and methylmalonyl-CoA are added. In a 3-ketoacyl-CoA reductase activity assay, 2-methylacetoacetyl-CoA is added. In an enoyl-CoA hydratase activity assay, 3-hydroxy-2-methylbutyryl-CoA is added. In an acyltransferase activity assay, angelyl-CoA is added. The concentration of the substrate may be any concentration as far as it has no effect on the reaction, and is suitably 0.01 mM to 0.2 M of the reaction solution. The enzyme concentration for the reaction is not particularly limited, and is usually in a range of 0.001 mg/ml to 100 mg/ml.
(§2) The activity may be detected by a method that can measure a decrease of substrates or an increase of reaction products during the reaction. Examples of such methods include a method that separates and quantifies a target substance optionally by using thin layer chromatography, column chromatography, high-performance liquid chromatography (HPLC) and the like. […]
Next, it was examined whether the obtained recombinant enzyme protein (OrfA) catalysed production of angelyl-CoA from 3-hydroxy-2-methylbutyryl-CoA by employing the following reaction conditions. […] After termination of the reaction by adding 100 μl of methanol, it was analysed on LC/MS.

[3] = 3-ketoacyl-CoA synthase activity of recombinant OrfB, LC/MS; type: biochemical; settings: 2.5 μg orfB, 250 μM acetyl-CoA, 250 μM methylmalonyl-CoA, pH 7.5, 27° C., 16 hours
Protocol: as §1, §2
Next, it was examined whether the obtained recombinant enzyme protein (OrfB) catalyses production of 2-methylacetoacetyl-CoA from acetyl-CoA and methylmalonyl-CoA by employing the following reaction conditions. […] After termination of the reaction by adding 100 μl of methanol, it was analysed on LC/MS.

[4] = acyltransferase activity of OrfC inferred from Streptomyces albus/pOSV556-orfABCD culture; type: cell-based, Streptomyces albus J1074; settings: inferred from Examples 1 to 4
Protocol: Streptomyces albus/pOSV556-orfABCD was grown by shake culture in 10 ml of a liquid medium containing 1% yeast extract and 1% glucose at 27° C. for 1 day, which was then added 1 ml of 20% trehalose aqueous solution, and the shake culture was continued at 27° C. for 4 more days. The obtained culture medium was added 10 ml of ethanol and stirred for 1 hour. Ethanol in the extract was then removed by distillation under reduced pressure, and 5 ml of ethyl acetate was added to the obtained aqueous solution, which was thoroughly stirred, and then the ethyl acetate phase was collected. After concentration to dryness, the solid was dissolved in 100 μl of methanol and analysed on LC/MS to confirm production of trehangelin (FIG. 1).

[5] = 3-ketoacyl-CoA reductase activity of recombinant OrfD, LC/MS; type: biochemical; settings: 0.8 μg orfD with 2.5 μg orfB, 500 μM NADPH, pH 7.5, 27° C., 16 hours
Protocol: as §1, §2
Next, it was examined whether the obtained recombinant enzyme protein (OrfD) catalysed production of 3-hydroxy-2-methylbutyryl-CoA from 2-methylacetoacetyl-CoA by employing the following reaction conditions. […] After termination of the reaction by adding 100 μl of methanol, it was analysed on LC/MS.

C/C=C(/C)C(=O)OC1C(O)C(CO)OC(OC2OC(CO)C(O)C(OC(=O)/C(C)=C\C)C2O)C1O (stereo not drawn) [Trehangelin A]
toxicity towards animal cells (particularly, human cells) [1]: do not exhibit toxicity

C/C=C(/C)C(=O)OC1C(OC2OC(CO)C(O)C(OC(=O)/C(C)=C\C)C2O)OC(CO)C(O)C1O (stereo not drawn) [Trehangelin B]
toxicity towards animal cells (particularly, human cells) [1]: do not exhibit toxicity

B1: OrfA: enzyme protein encoded by SEQ ID NO: 2, enoyl-CoA hydratase from Polymorphospora rubra K07-0510 (protein)
chain: VTRPDAPGPPVAAPDPADAVVTAVEPYVVRATINRPARRNAIDLAVIEGLERAIDLAEATGARVLVLRGAGGTFCSGADLRVLEEMSVDPHRVETFMVRLALVLRRLETARFVSVAVVEGHAVAGGCEILLACDVSVAATDARIGDRHLEYGLVPAAGGSVRLARTLPKARGNYLLLAADLLTGEQAAQWGLVSVAVPPTDLEPRVDALVGRLVGHSADALAVVKKMVWTADHEPRPDAMSWERRLFLRHLGSEDVSEGLRAFRERRRPAFRADD
modifications: Polymorphospora rubra K07-0510; CDS (1)..(828)
production of angelyl-CoA from 3-hydroxy-2-methylbutyryl-CoA [2]: production of angelyl-CoA was observed

B2: OrfB: enzyme protein encoded by SEQ ID NO: 4, 3-ketoacyl-CoA synthase from Polymorphospora rubra K07-0510 (protein)
chain: MSTSTVIGTGSYLPRRVLSSGELARRVGVAENWIVEKTGIRERRVAADEEATSDLATRAARRALRTARLDPADVDLIVLATSTPDRPMPATASTVQANLGARQAVAFDVDAVCSGFVYALVVAHSMLNSEGWARTALVIGADTYSRVLDYTDRRTAVLFGDGAGAVVLGRETGGGSGIRATTLGTDGTLADLVQIPAGGSRRPASAQTVEAGDHYFAMRGGDVRRLANQVFPALVGQLLKAASLDLDQVDLIAAHQANGTMLTDWSRDLGLRPGVLHRTVERYGNTGAASVPVTLDDAVRTGRLGAAATLLMVAFGGGMTWGGVALDWSADPSVPRSNCVR
modifications: Polymorphospora rubra K07-0510; CDS (1)..(1026)
production of 2-methylacetoacetyl-CoA from acetyl-CoA and methylmalonyl-CoA [3]: production of 2-methylacetoacetyl-CoA was observed

B3: OrfC: enzyme protein encoded by SEQ ID NO: 6, acyltransferase from Polymorphospora rubra K07-0510 (protein)
chain: MTTSALGAEPGATDPPAAPPVSYAPSGRMPRTINRWPRPFAPRNILGVLRARLRGATISLNQVKFDESTAERNALVMEHALLRHSHVARYAIVGPFTSLFKVRVGPYAGIAEKVTVGALPHWPELPTSHVFPVNAEFGFCAGEWPEVPGTEVGADAWIGAGAVVRAGVRIGHGAIVAAGAVVTRDVADYEIVAGVPARRLRSRFPDDLAERLVALAWWDWPPGFIKANIDLFQRPLTADTLAALEERARALPTPPGGAA
modifications: Polymorphospora rubra K07-0510; CDS (1)..(780)
acyltransferase activity (trehangelin from angelyl-CoA and trehalose) [4]: had an acyltransferase activity

B4: OrfD: enzyme protein encoded by SEQ ID NO: 8, 3-ketoacyl-CoA reductase from Polymorphospora rubra K07-0510 (protein)
chain: VTAGTGQPVVAAPGRALADRVVVVTGASRGVGRDLARVFADHGARLGLLARSRDALDDLGGTLTAAGADVLAVPCDVGEPDSLAGAVDAVAGHFGGIDSVVVNAGISPVARRAHHLPIDAWHDVLATNLTGGFVTARAAYPHLARSGRGRLVFTTSVMAATPRRGLSAYAASKAGLEGLTRALAADWAGDGILVNAVAPGFFDTGLGAAFHTSQRLHEQVVGRTPVARFGRADELAAAFVFLAGDACGYLTGQVLAVDGGYGLG
modifications: Polymorphospora rubra K07-0510; CDS (1)..(795)
production of 3-hydroxy-2-methylbutyryl-CoA from 2-methylacetoacetyl-CoA [5]: production of 3-hydroxy-2-methylbutyryl-CoA was observed
